Assay [1] deals with MEFs. Description: TUNEL staining of apoptotic cells in factor-infected MEFs. The format is cell-based, mouse. As to conditions: 2-F, 3-F and 4-F experiments, five days after infection. On the procedure:
FIG. 13: Bcl-2 increased the efficiency of reprogramming. (FIG. 13a) MEFs were infected by retroviruses encoding 4 transcription factors (Oct4/Sox2/Klf4/c-Myc), 3 factors (Oct4/Sox2/Klf4), or 2 factors (Oct4/Sox2) with lentivirus encoding Bcl-2. Five days after infection, TUNEL-staining was performed. The percentage of apoptotic cells was analyzed (using at least five independent panels) and represented graphically. Error bars indicate s.d. (FIG. 13b) MEFs were infected by retroviruses encoding 3 factors (Oct4/Sox2/Klf4) in combination with mock or Bcl-2 expressing lentivirus. The fold change in the number of Nanog-positive colonies compared to mock (n=3) is shown. Error bars indicate s.d (n=3).

In assay [2] the test system is Mouse embryonic fibroblasts (MEFs). Description: Reprogramming of mouse embryonic fibroblasts to iPS cells (Nanog-positive colonies). The format is cell-based. As to conditions: MEFs; for Reprogramming efficiency (Nanog-positive colonies / infected cells): 3F (Oct4/Sox2/Klf4), d12-14, error = s.d.; for Direction and grade of change in reprogramming efficiency (arrows): 3F, vs control. The source says:
VSV-G viruses were produced in HEK293T cells. For pMX-based and pMSCV-based retroviruses, vectors were transfected using CaPO4 or lipofectamin, following the manufacturers' directions. One day after transfection, culture medium was changed to new medium. For lentivirus, pBOBI-based^34 or pLVTHM-based^37 vectors were transfected by Lipofectamine™ 2000 (Invitrogen) according to the manufacturer's protocol. Six hours after transfection, the DNA-lipofectamine-complex was removed and the medium was replaced the next day. Two days after transfection, the supernatant containing viruses was collected and filtered through a 0.45 μm filter. Mouse iPS cells were induced as previously described^38,39. Briefly, mouse embryonic fibroblasts (passage 3 to 5) were infected (day 0) with pMX-based retroviruses together with pLVTHM-based lentivirus for shRNAs or pBOBI-based lentivirus for Bcl-2. On day 2, cells were passed onto new gelatin-coated plates. Medium was changed every 2 days. On day 12 to 14, cells were fixed for immunofluorescence study. For the Nutlin3a experiments, cells were treated starting from day 4. Reprogramming of human embryonic fibroblasts (IMR90) was done as previously described^2′^3. Briefly, IMR90 fibroblasts (passage 7 to 9) were infected (day 0) with pMSCV-based retroviruses+pLVTHM-based lentiviruses for p53 shRNA. On day 4 or 5, cells were passed onto feeder MEFs. Medium was changed every day. Around 3 weeks after infection, cells were fixed for immunofluorescence studies. Reprogramming of human primary keratinocytes was carried out essentially as described^6. Cells were co-infected with retroviral supernatants containing 3 or 4 reprogramming factors and p53-DD or GFP at a 1:2 ratio. To assess the reprogramming efficiency, cells were trypsinized 3 days after retroviral infection and 10^4 cells were plated onto 6-cm tissue culture dishes on top of irradiated human foreskin fibroblasts with hES cell medium.
The number of Nanog-positive colonies was calculated after immunostaining at d12-14. The total number of Nanog-positive colonies was divided by the number of infected cells. Error numbers indicate s.d. The term “s.d.” refers in the customary sense to standard deviation. The term “s.e.” refers in the customary sense to standard error. Student's t-tests were performed for statistical analysis. p=0.007 (p53-shRNA vs mock, n=4 in each), p=0.0006 (p53−/− vs WT, n=3 in each), p=0.009 (p21-shRNA vs mock, n=4 in each), p=0.0005 (Arf-shRNA vs mock, n=3 in each), p=0.028 (Arf/Ink4a-shRNA vs mock, n=3 in each), p=0.010 (Ctl(solvent) vs Nutlin-3(10 μM), n=3 in each), p=0.045 (3SA/3SA vs WT, n=3 in each), p=0.022 (Bcl-2 vs mock, n=4 in each), and p=0.012 (c-Myc versus mock, n=4 in each).

The values that follow come from patent publication US20120076762A1, “INDUCED PLURIPOTENT STEM CELL GENERATION USING TWO FACTORS AND P53 INACTIVATION” (THE SALK INSTITUTE FOR BIOLOGICAL STUDIES, priority 2009, published 2012).

B1: Bcl-2: mouse Bcl-2 cDNA overexpressed from HIV pBOBI lentiviral vector; BAX antagonist (protein, UniProt P10417 1-236, looked up)
Apoptosis regulator Bcl-2: MAQAGRTGYDNREIVMKYIHYKLSQRGYEWDAGDADAAPLGAAPTPGIFSFQPESNPMPAVHRDMAARTSPLRPLVATAGPALSPVPPVVHLTLRRAGDDFSRRYRRDFAEMSSQLHLTPFTARGRFATVVEELFRDGVNWGRIVAFFEFGGVMCVESVNREMSPLVDNIALWMTEYLNRHLHTWIQDNGGWDAFVELYGPSMRPLFDFSWLSLKTLLSLALVGACITLGAYLGHK
On to B1, for which the “Effect on apoptosis (TUNEL)” value in assay [1] is given as “suppressed apoptosis”. Besides, the “Fold increase in reprogramming / Nanog-positive colony formation vs control” value in assay [2] (3-F) is recorded as 4 fold. Further, in assay [2], the “Reprogramming efficiency (Nanog-positive colonies / infected cells)” value is listed as 0.268 ± 0.117% vs 0.100 + 0.062%; the “Direction and grade of change in reprogramming efficiency (arrows)” value is given as “↑↑”.

B2: c-Myc: c-Myc retrovirus (pMXs) added to Oct4/Sox2/Klf4 as fourth factor (protein, UniProt P01108 1-454, looked up)
Myc proto-oncogene protein: MDFLWALETPQTATTMPLNVNFTNRNYDLDYDSVQPYFICDEEENFYHQQQQSELQPPAPSEDIWKKFELLPTPPLSPSRRSGLCSPSYVAVATSFSPREDDDGGGGNFSTADQLEMMTELLGGDMVNQSFICDPDDETFIKNIIIQDCMWSGFSAAAKLVSEKLASYQAARKDSTSLSPARGHSVCSTSSLYLQDLTAAASECIDPSVVFPYPLNDSSSPKSCTSSDSTAFSPSSDSLLSSESSPRASPEPLVLHEETPPTTSSDSEEEQEDEEEIDVVSVEKRQTPAKRSESGSSPSRGHSKPPHSPLVLKRCHVSTHQHNYAAPPSTRKDYPAAKRAKLDSGRVLKQISNNRKCSSPRSSDTEENDKRRTHNVLERQRRNELKRSFFALRDQIPELENNEKAPKVVILKKATAYILSIQADEHKLTSEKDLLRKRREQLKHKLEQLRNSGA
As to B2, in assay [2], the “Reprogramming efficiency (Nanog-positive colonies / infected cells)” value was found to be 0.517 ± 0.264% vs 0.114 + 0.054%; the “Direction and grade of change in reprogramming efficiency (arrows)” value is “↑↑”.
